Target: RuvAMge;RecUMge (Mycoplasma genitalium G37 (ATCC …, UniProt Q49424;Q49422 1-205;1-166, |))
Test: EMSA; 0.5 uM RecUMge preincubated, then RuvAMge; all RecU-HJ complexes shifted at 4 uM; 20 mM Tris-HCl pH 7.5, 1 mM DTT, 1 mM EDTA, 12.3 nM DNA, 10 ul, on ice 10 min; 8% PAGE in 0.5x TBE; +/- 10 mM Mg2+

B1: HJ 1.1 (structured_DNA)
DNA 1: GCGACGTGATCACCAGATGATTGCTAGGCATGCTTTCCGCAAGAGAAGC
DNA 2: GGCTTCTCTTGCGGAAAGCATGCCTAGCAATCCTGTCAGCTGCATGGAAC
DNA 3: GGTTCCATGCAGCTGACAGGATTGCTAGGCTCAAGGCGAACTGCTAACGG
DNA 4: ACCGTTAGCAGTTCGCCTTGAGCCTAGCAATCATCTGGTGATCACGTCGC
B1: binds.

Source: PMC3364216, “The RuvA Homologues from Mycoplasma genitalium and Mycoplasma pneumoniae Exhibit Unique Functional Characteristics”
